Source: article PMC10275993

Target: acidic H8 loop of karyopherin β2 (KAPB2-H8)
Test: turbidity (OD600) of liquid-liquid phase separation, critical salt concentration; 50 μM R-DPR peptide mixed with 50 μM KAPB2-H8 peptide in 10 mM HEPES pH 7.4 with 0 to 400 mM NaCl; droplets also imaged by confocal microscopy

| critical salt concentration (NaCl at which the droplets disappeared) | NaCl concentration until which the droplets remained | Binder |
| --- | --- | --- |
| 250 mM | – | PRPRPRPRPRPRPRPRPRPRPRPRPRPRPRPRPRPRPRPR [(PR)20] |
| – | 300 mM | GRGRGRGRGRGRGRGRGRGRGRGRGRGRGRGRGRGRGRGR [(GR)20] |
